Data published in the supplement of paper PMC12764529.
± gives the half width of the 95% confidence interval.

Columns and labels:
[1] = folding stability dG unfold from trypsin proteolysis; higher = more stable
Summary of the method: (§1)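 Bayesian fitting of sequencing counts gave K50 for each design. Unfolding free energy followed by setting this against a sequence-predicted unfolded-state K50 and a shared folded-state K50, either per protease or with trypsin and chymotrypsin combined. The designs, under 80 residues and lacking cysteine, were digested in a PA-tagged cDNA display format at 11 threefold-diluted protease concentrations and without protease, and only those with AlphaFold2 dimer inter-PAE above 15 were kept.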

[2] = folding stability dG unfold from chymotrypsin proteolysis; higher = more stable
Summary of the method: as §1

[3] = folding stability dG unfold (combined trypsin and chymotrypsin); higher = more stable
Summary of the method: as §1

Sequence | folding stability dG unfold [1] | folding stability dG unfold [2] | folding stability dG unfold [3]
SAGGSAGGSKMLLVKVYIEETKEEIVIEVPEGMTLEEIAERLRELGYKIKKIEVYELPPPPEESAGGSAGGS [r12_955_TrROS_Hall] | 3.82 ± 0.18 kcal/mol | 4.25 ± 0.078 kcal/mol | 4.11 ± 0.3 kcal/mol
SAGGSAGGSAGGSPKRVTMYFIIPFYILIPKEDADGNNEWVIIPITIIIKIEIELPPGDSAGGSAGGSAGGS [r4_326_TrROS] | 4.5 ± 0.15 kcal/mol | 5.49 ± 0.14 kcal/mol | 5.48 ± 0.19 kcal/mol
SAGGKNDVKTKTYEIEKDGGKITIEFEKLPDGKYKATVTYPDGKKETLVFDLGEGKEEEFAKEIAKKKSAGG [r13_296_TrMRF] | 1.46 ± 0.12 kcal/mol | 3.05 ± 0.067 kcal/mol | 2.48 ± 0.38 kcal/mol
KIKELAKKLGLNVTVKVEKKPIKNPDGSTYTITKVEVTVDKKNKTITIKVEVKNKKTNKTITKTYTIKLKKS [r1_448_TrROS_Hall] | 2.37 ± 0.12 kcal/mol | 2.26 ± 0.11 kcal/mol | 2.64 ± 0.24 kcal/mol
SAGWIIKIYFPDKKKEIMISRFPDGQWWMVQVHDKKGEPRQTIPAGMPVDELLKDFPDAKVEVYPFEPPSAG [r5_314_TrROS] | 1.55 ± 0.039 kcal/mol | 2.59 ± 0.051 kcal/mol | 2.21 ± 0.086 kcal/mol
SAGGSAGGSAMLTKITITFEKPGTDETFTKPIDVPPDNPEEAIKAIKEELKKKGYKVKSVILSAGGSAGGSA [r18_3_JUSTAS] | 1.28 ± 0.078 kcal/mol | 1.73 ± 0.074 kcal/mol | 1.57 ± 0.15 kcal/mol
SAKKYIIRVKVKINGKEYEIEIEADSLEEALAKLKEELKKLFPGEKIEEVKIEVYDAKTGEKKEITLKLSAG [r14_54_TrROS_Hall] | 2.76 ± 0.12 kcal/mol | 4.2 ± 0.16 kcal/mol | 4 ± 0.35 kcal/mol
SAGGSAGGSAGPEILIVVESEEEAKKLAEELARALREAGLPEDAKIKIKIIVLPKEELEKSAGGSAGGSAGG [r17_180_TrROS_Hall] | 1.76 ± 0.062 kcal/mol | 2.33 ± 0.048 kcal/mol | 2.12 ± 0.066 kcal/mol
SAGGSAGGMKVLATTEDGEVYLFDLSEFDLSFEEWLNLGEEELAELLRKAFPEKEITLELVEEPSAGGSAGG [r6_164_TrMRF] | 2.5 ± 0.076 kcal/mol | 3.3 ± 0.047 kcal/mol | 3.02 ± 0.077 kcal/mol
FTMDEMKELADNIADNLAKEDGYKIKSVNIDATIPIPVYMKVRPDPNGEPRWEMHWMPIKVKINVEIKPPNS [r1_91_TrROS] | 2.02 ± 0.18 kcal/mol | 2.55 ± 0.09 kcal/mol | 2.55 ± 0.36 kcal/mol
SAGGSAGGSAGGSSFTIKVELKDENGNKYTITVTGTGSAETVKKELEKKYPNKIVKITGSAGGSAGGSAGGS [r4_412_TrMRF] | 1.93 ± 0.089 kcal/mol | 2.897 ± 0.025 kcal/mol | 2.69 ± 0.046 kcal/mol
SAGKKKVLLAVDPENNALVLVEYETVGDVTFVRSLVFHGNTTTETLGLVRVIEPGKTEKLLISVPIPPSAGG [r19_292_TrMRF] | 2.07 ± 0.047 kcal/mol | 2.3 ± 0.05 kcal/mol | 2.26 ± 0.13 kcal/mol
SAGGSAGGSASIGGGPTGHSYKITLPNGTEKFLVMDPSTLKELIEKLGVKEVEVKDIGPLQSAGGSAGGSAG [r3_141_JUSTAS] | 0.842 ± 0.077 kcal/mol | 0.0184 ± 0.27 kcal/mol | 0.482 ± 0.15 kcal/mol
SAGPKITVKKLPDGSYLLLIEVPHEGGPSSRALIPYNPKTGKLELLEIETTHEEIKDKLIELAEELRKSSAG [r5_266_TrMRF] | 1.96 ± 0.08 kcal/mol | 2.8 ± 0.071 kcal/mol | 2.52 ± 0.13 kcal/mol
SAGGSAGGSAKSVVRIKIYNKKTGKVLEIEIPENMTEEEIKKLAEELAKKNNVEIVEVEKVPSAGGSAGGSA [r18_322_TrROS_Hall] | 1.83 ± 0.051 kcal/mol | 2.99 ± 0.051 kcal/mol | 2.63 ± 0.12 kcal/mol
SAGGSAGGSAGGGKEISLDELIDIAIELGYPGTIEDLLADPNIKIYPNPYDDKPVILIPDSAGGSAGGSAGG [r7_180_TrMRF] | 1.7 ± 0.065 kcal/mol | 0.576 ± 0.053 kcal/mol | 1.25 ± 0.086 kcal/mol
SAGGSAMPPGEPIGSFSFPFNNGGNLMISAYPGGEIKISWWGPDGRPHEHEFPVKVKPPPPEDEGKSAGGSA [r15_478_TrROS] | 1.33 ± 0.053 kcal/mol | 1.64 ± 0.07 kcal/mol | 1.6 ± 0.19 kcal/mol
SAGGSAGGSPESVTFPVGDYLVTVTRNPEDGSLTVTVYDPKTGKPIVLPPEVLAENPDLAENLSAGGSAGGS [r12_817_TrMRF] | 3.14 ± 0.11 kcal/mol | 2.35 ± 0.058 kcal/mol | 2.68 ± 0.056 kcal/mol
SAGGMTLKIRVKDKEKALEALKALPGIEVKEVKVEKNENGELTVTVESKEALDALKKAGIEVEEIEPSAGGS [r16_381_TrROS_Hall] | 2.33 ± 0.15 kcal/mol | 3.18 ± 0.087 kcal/mol | 2.9 ± 0.16 kcal/mol
SAGGSAGGSAGENKPIKVLVFLEKEDEYYEELFEFDSPEEIEEWLKKIPKDYKVKKVIVFSAGGSAGGSAGG [r17_410_TrMRF] | 3.09 ± 0.11 kcal/mol | 3.95 ± 0.14 kcal/mol | 3.61 ± 0.16 kcal/mol
SAGGSAGGSAGMVITLPNGEKVEITFDKENKKITITFPDGKKVEIEIEGMSLEEILKALKSAGGSAGGSAGG [r11_729_TrROS_Hall] | 3.84 ± 0.14 kcal/mol | 3.22 ± 0.075 kcal/mol | 3.59 ± 0.089 kcal/mol

Sequence | folding stability dG unfold [1] | folding stability dG unfold [2] | folding stability dG unfold [3]
SYSIDTSKIEEAAAALPPNAVAELELTANVPESGFTLKLKVTITVDPAGKVTRITFTDPATGKKIATVDVGS [r1_165_JUSTAS] | 2.47 ± 0.069 kcal/mol | 1.52 ± 0.11 kcal/mol | 2.1 ± 0.12 kcal/mol
SMTVVIDIPPEVPVPGSGSVRPVPVEEVLKRVEEAMAKGKKVVVTGRDPKHPLVQEVAARLEELGVEVVGSA [r9_468_JUSTAS] | 0.342 ± 0.029 kcal/mol | 0.71 ± 0.016 kcal/mol | 0.59 ± 0.054 kcal/mol
SAAKKLKELGYKVKKVEVLKPFTLPDGTTLTEYRITVELPTKTVTVDIIAPGESPEIAEEAALAAITASSAG [r14_726_TrMRF] | 1.25 ± 0.016 kcal/mol | 3.157 ± 0.011 kcal/mol | 2.81 ± 0.051 kcal/mol
KTIEIWIPMPMGQAETFVKSLARKLGLPPDDYKVDNVEMQPNKDGWPYVKMEIKLPNNGKEIEIIMPPGWFS [r1_21_TrROS] | 1.67 ± 0.061 kcal/mol | 2.6 ± 0.059 kcal/mol | 2.38 ± 0.23 kcal/mol
SAMDIGPEERAELLLRTLANIAKEEIEKGDLEKAKIFVINGIAEENPPLAERILKEAKELGLPVIILPESAG [r14_908_TrMRF] | 0.659 ± 0.1 kcal/mol | 1.13 ± 0.076 kcal/mol | 0.981 ± 0.059 kcal/mol
SAGGSAGGSDDDENQKENQKAKPIKLEPIVEITVPYPDGFSLTVPIWRWPDGGIGIELEIFPLGSAGGSAGG [r6_326_TrROS] | 0.867 ± 0.071 kcal/mol | 1.44 ± 0.045 kcal/mol | 1.3 ± 0.37 kcal/mol
SAGGSKLPPGQKVIEIEWKIPPGLKPGQPFKISDEFINKLAERHGNIHITNIQFTNSYMKWSIIIDSAGGSA [r2_383_TrROS] | 1.83 ± 0.063 kcal/mol | 2.2 ± 0.051 kcal/mol | 2.11 ± 0.067 kcal/mol
SAGGSAGGSAGGGVVTLPDLKGLSEEELKALAEEIAKKLGLENVPLKLEFGEDGNLTLVLSAGGSAGGSAGG [r7_810_JUSTAS] | 2.15 ± 0.077 kcal/mol | 1.24 ± 0.054 kcal/mol | 1.74 ± 0.11 kcal/mol
SAGGSAGGSKGKKITIILPPGMPPDAIKNWLAPLGINITIEPIPVVKPKRDPDDGEETYEPYGSAGGSAGGS [r12_80_TrROS] | 0.73 ± 0.1 kcal/mol | 0.596 ± 0.24 kcal/mol | 0.579 ± 0.2 kcal/mol
SAGPKELAKQIKEIARELARAFHPNGQPMKMEVEIEPVSIDDENGWVRLKVKIRMPNRPVKFNITIPLKSAG [r5_53_TrROS] | 2.04 ± 0.07 kcal/mol | 3.19 ± 0.12 kcal/mol | 2.72 ± 0.27 kcal/mol
SAGGSAGGSAGGSIPPSDVTTEVDPNTPLTTVTYPSGVVVTETFPPDGTSTTTVDTAAGSAGGSAGGSAGGS [r10_170_JUSTAS] | 2.01 ± 0.038 kcal/mol | 1.23 ± 0.028 kcal/mol | 1.56 ± 0.039 kcal/mol
SAGGSAKNEYITVNITIIVYNPEDGKIEKIINLPIKVPKNLTKEQVINLAKKLLEEKGYEIAEIKGSAGGSA [r15_195_TrMRF] | 2.22 ± 0.12 kcal/mol | 3.24 ± 0.13 kcal/mol | 2.85 ± 0.2 kcal/mol
SAGPTVRQETFGEKYRIEVEVSPDGTVKVKIVNENGEVTELEGKVEPGKPVVLPFPLDGHVVNVVVLPASAG [r5_237_TrMRF] | 1.54 ± 0.089 kcal/mol | 2.91 ± 0.06 kcal/mol | 2.52 ± 0.13 kcal/mol
SAGGSAGGSAGGATAEELAAALKELEAKLKALLEKPEEVEVEVEVKAPEVEEVDGKLVLLSAGGSAGGSAGG [r7_44_TrROS_Hall] | 0.651 ± 0.041 kcal/mol | -1.19 ± 0.33 kcal/mol | 0.145 ± 0.11 kcal/mol
SAGGSAGGSAGGLPEGWVLKTETKTVKLKVKVKVDGKEYEFEVEVKVTRIELVPKEELESAGGSAGGSAGGS [r10_300_TrROS_Hall] | 3.04 ± 0.23 kcal/mol | 4.08 ± 0.2 kcal/mol | 3.76 ± 0.11 kcal/mol
SAGGSAGGSIVFRSPEQAKEWLDNFPPGNEVNIHVQGPDTGQPQEFEIKIPPPKPEYDPDGKPSAGGSAGGS [r12_393_TrROS] | -0.124 ± 0.088 kcal/mol | -0.773 ± 0.54 kcal/mol | -0.169 ± 0.32 kcal/mol
SAGGSAGGMKTITIELPPGPVRIRVRLAATGEEVTVEVDAETPTVTITIPEEGAEIVEIEIEPVSAGGSAGG [r6_977_TrROS_Hall] | 2.06 ± 0.065 kcal/mol | 2.66 ± 0.13 kcal/mol | 2.59 ± 0.18 kcal/mol
SATETLTVVETRTVRDPAVPGTTTTETRVTEVTRPAPPPPPLSAEELARALAEAGLLERTDDGELKVVLSAG [r14_582_TrROS_Hall] | -0.559 ± 0.25 kcal/mol | -0.276 ± 0.11 kcal/mol | -0.567 ± 0.43 kcal/mol
SMKVEIPPELVEAIEKALAEKKPGEEVEIEFEHPDGPLIRVRIEKDGRVRIEVFEHPDKLIAEFEFEPKPSA [r9_132_TrMRF] | 3.31 ± 0.095 kcal/mol | 2.98 ± 0.087 kcal/mol | 3.14 ± 0.077 kcal/mol
SMLNIPSDWKVITIKLEYKVEPGVSEEEVKEKAIEELKKKFPKNTKIEVEVTPDPETGTVTIKITIIIKKSA [r9_657_JUSTAS] | 2.15 ± 0.062 kcal/mol | 1.38 ± 0.056 kcal/mol | 1.84 ± 0.1 kcal/mol
SAGGSAKKKKTLKITLIIKVKTKEEAEKLAEELAEKLKKLLPEGAKIKVKVTVNKETGYVTVEIELSAGGSA [r15_981_TrROS_Hall] | 2.88 ± 0.16 kcal/mol | 3.64 ± 0.14 kcal/mol | 3.38 ± 0.15 kcal/mol
